Assay results taken from patent US20260209363A1 (Chugai, published 2026).

T1: Mouse MOG (R&D system) (mouse, UniProt Q61885 29-156, limits assumed)
T1 construct: also called mouse soluble MOG; soluble MOG
T1 sequence (looked up): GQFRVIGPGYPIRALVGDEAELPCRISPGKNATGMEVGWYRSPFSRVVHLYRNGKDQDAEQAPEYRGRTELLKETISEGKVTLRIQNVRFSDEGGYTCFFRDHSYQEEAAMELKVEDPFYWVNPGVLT

T2: His-tagged mouse MOG (8536-MO, R&D Systems) (mouse, UniProt Q61885 29-156, limits assumed)
T2 construct: Bought; also called mouse soluble MOG; not shown: His tag
T2 sequence (looked up): T1 sequence (looked up)

B1: ABD094(H/L)-MOG//IC17 (bispecific antibody, human IgG1, kappa)
heavy 1: LAEAKEAANAELDSYGVSDFYKRLIDKAKTVEGVEALKDAILAALPRVTLRESGPTLVKPTQTLTLTCTFSGFSLSTSGVGVGWIRQPPGKALEWLALIFWDDDSHYSPSLKSRLTITKDTSKNQVVLTMTNMDPVDTATYYCARYYFGSGSYFPSYWYFDLWGRGTLVTVSSASTKGPSVFPLAPSSKSTSGGTAALGCLVEDYFPEPVTVSWNSGALTSGVHTFPAVLQSSGLYSLSSVVTVPSSSLGTQTYICNVNHKPSNTKVDERVEPKSCDKTHTCPPCPAPELRRGPSVFLFPPKPKDTLMISRTPEVTCVVVDVSHEDPEVKFNWYVDGVEVHNAKTKPREEQYNSTYRVVSVLTVLHQDWLNGKEYKCKVSNKALPAPIEKTISKAKGQPREPQVCTLPPSREEMTKNQVSLSCAVKGFYPSDIAVEWESNGQPENNYKTTPPVLDSDGSFFLVSKLTVDKSRWQQGNVFSCSVMHEALHNHYTQKSLSLSP
light 1: not shown
heavy 2: not shown
light 2: QVQLQQSGPQLVRPGASVKISCKASGYSFTSYWMHWVNQRPGQGLEWIGMIDPSYSETRLNQKFKDKATLTVDKSSSTAYMQLSSPTSEDSAVYYCALYGNYFDYWGQGTTLTVSSASVAAPSVFIFPPSDEQLKSGTASVVCLLNNFYPREAKVQWKVDNALQSGNSQESVTEQDSKDSTYSLSSTLTLSKADYEKHKVYACEVTHQGLSSPVTKSFNRGEC
notes: also called ABD094(H/L)-MOG307//IC17; anti-MOG albumin switch molecule
B2: ABD094(H/L).N10-MOG//IC17 (bispecific antibody, human IgG1, kappa)
heavy 1: LAEAKEAANAELDSYGVSDFYKRLIDKAKTVEGVEALKDAILAALPGRVTLRESGPTLVKPTQTLTLTCTFSGFSLSTSGVGVGWIRQPPGKALEWLALIFWDDDSHYSPSLKSRLTITKDTSKNQVVLTMTNMDPVDTATYYCARYYFGSGSYFPSYWYFDLWGRGTLVTVSSASTKGPSVFPLAPSSKSTSGGTAALGCLVEDYFPEPVTVSWNSGALTSGVHTFPAVLQSSGLYSLSSVVTVPSSSLGTQTYICNVNHKPSNTKVDERVEPKSCDKTHTCPPCPAPELRRGPSVFLFPPKPKDTLMISRTPEVTCVVVDVSHEDPEVKFNWYVDGVEVHNAKTKPREEQYNSTYRVVSVLTVLHQDWLNGKEYKCKVSNKALPAPIEKTISKAKGQPREPQVCTLPPSREEMTKNQVSLSCAVKGFYPSDIAVEWESNGQPENNYKTTPPVLDSDGSFFLVSKLTVDKSRWQQGNVFSCSVMHEALHNHYTQKSLSLSP
light 1: not shown
heavy 2: not shown
light 2: B1 light 2
notes: ABD094 linked via N10 linker (G) at VH and VL N-termini of the MOG arm; also called ABD094.N10(H/L)-MOG//IC17; ABD094(H/L).N10-MOG307//IC17
B3: ABD094(H/L).N02-MOG//IC17 (bispecific antibody, human IgG1, kappa)
heavy 1: LAEAKEAANAELDSYGVSDFYKRLIDKAKTVEGVEALKDAILAALPGGGGSRVTLRESGPTLVKPTQTLTLTCTFSGFSLSTSGVGVGWIRQPPGKALEWLALIFWDDDSHYSPSLKSRLTITKDTSKNQVVLTMTNMDPVDTATYYCARYYFGSGSYFPSYWYFDLWGRGTLVTVSSASTKGPSVFPLAPSSKSTSGGTAALGCLVEDYFPEPVTVSWNSGALTSGVHTFPAVLQSSGLYSLSSVVTVPSSSLGTQTYICNVNHKPSNTKVDERVEPKSCDKTHTCPPCPAPELRRGPSVFLFPPKPKDTLMISRTPEVTCVVVDVSHEDPEVKFNWYVDGVEVHNAKTKPREEQYNSTYRVVSVLTVLHQDWLNGKEYKCKVSNKALPAPIEKTISKAKGQPREPQVCTLPPSREEMTKNQVSLSCAVKGFYPSDIAVEWESNGQPENNYKTTPPVLDSDGSFFLVSKLTVDKSRWQQGNVFSCSVMHEALHNHYTQKSLSLSP
light 1: not shown
heavy 2: not shown
light 2: B1 light 2
notes: ABD094 linked via N02 linker at VH and VL N-termini of the MOG arm; also called ABD094.N02(H/L)-MOG//IC17

molecular target: T1, Mouse MOG (R&D system); assay: SPR (Biacore T200), antibody captured by anti-human Fc antibody, mouse MOG as analyte, 25 degrees C, no albumin
Description: Binding activities of the antibodies produced in Example 10 against mouse MOG were assessed using Biacore T200 (Cytiva).
As the running buffer, 50 mM Na Phosphate (pH 7.4), 150 mM NaCl, 0.05% Tween 20, and 0.005% NaN₃ was used, and the assessment was performed at 25 degrees C. First, anti-human Fc antibody (Cytiva) was used as a ligand-capturing molecule. Anti-human Fc antibody (Cytiva) was solid-phased on a Series S Sensor Chip CM4 (Cytiva) using an Amine Coupling Kit (Cytiva). Antibody solutions prepared using the running buffer was allowed to interact with this CM4 sensor chip to capture approximately 480 RU of the antibody. Mouse MOG (R&D system) was diluted to 0, 10, 40, 160, and 640 nM with the running buffer, and then bound to the captured antibody. The chip was regenerated using 3 M MgCl₂, and measurements were performed by repeatedly capturing antibodies. Dissociation constant (KD) of the respective antibodies for mouse MOG was calculated using Biacore T200 Evaluation Software 2.0. Specifically, the association rate constant ka (L/mol/s) and the dissociation rate constant kd (1/s) were calculated by global fitting of the sensorgrams obtained by measurement with the 1:1 Langmuir binding model, and the dissociation constant KD (mol/L) was calculated from these values.

| Binder | Kd [nM] | koff [s⁻¹] | kon [M⁻¹ s⁻¹] |
| --- | --- | --- | --- |
| B1 | 1.91 | 1.39e-05 | 7260 |
| B2 | 5.53 | 9.46e-06 | 1710 |
| B3 | 0.0607 | 3.46e-07 | 5700 |

molecular target: T2, His-tagged mouse MOG (8536-MO, R&D …); assay: Gyrolab xP immunoassay of antibody-antigen complex in C57BL/6J mouse plasma (albumin present), 2 nM antibody, 9 nM His-tagged mouse MOG
Description: First, to bind the albumin-binding domain to albumin in plasma, each of the anti-mouse MOG antibodies mentioned above were diluted to 8 nM using C57BL/6J mouse plasma, and then incubated at room temperature for 40 minutes. Next, for binding of the anti-mouse MOG antibody to the target antigen, one equivalent of His-tagged mouse MOG (8536-MO, R&D Systems) diluted to 38 nM in mouse plasma was added to the antibody solutions, and then the solutions were incubated at room temperature for 1 hour 25 minutes.
To detect the antibody-antigen complexes, first, the anti-delta GK antibody (AF647-anti-delta GK) was labeled using an Alexa flour 647 labeling kit (A20186, Thermo Fisher Scientific) according to the attached protocols. […] (the final concentrations were 2 nM for the antibody, 9 nM for His-tagged mouse MOG, and 67 nM for AF647-anti-delta GK).
Measurement of antigen-antibody complexes were performed using Gyrolab xP. For the measurements using Gyrolab xP, Gyrolab Bioaffy 200 (P0004180, Gyros Protein Technologies) was used as the measurement disc. Biotinylated anti-His-tagged antibody (BAM050, R&D Systems) diluted to 10 micro g/mL with PBS 0.05% Tween 20 was added to the measurement disc, and then solid-phased on the reaction layer in the disc. A mixed solution of the labeled anti-delta GK antibody, anti-mouse MOG antibody (albumin switch molecule), and mouse MOG, incubated as described above, was added to the disc, and the anti-mouse MOG antibody-mouse MOG-AF647-anti-delta GK complex was captured by the solid-phased antibody. The amount of the captured complex was detected by the fluorescence signal of AF647 (Detect PMT 25%). The fluorescence signal of AF647 was analyzed by Gyro Evaluator (version 3.6.2.30, Gyros Protein Technologies).

| Binder | decrease in the signal derived from the complex, compared to MOG//IC17 [%] |
| --- | --- |
| B1 | 90 |
| B2 | 83 |
| B3 | 79 |
